Test results from PMC6921968.

Target: SpyCatcher::HBsAg VLP (hepatitis B surface antigen genetically fused to SpyCatcher) (Streptococcus pyogenes | hepatitis B virus)
Assay: covalent (isopeptide) coupling, SDS-PAGE with Coomassie staining and densitometry; SpyCatcher::HBsAg VLP incubated with Pfs25::SpyTag at molar ratio 1.5, 0.5 or 0.1, 3 h to overnight at room temperature, with 10x reaction buffer (40 mM Na2HPO4, 200 mM sodium citrate, pH 6.2); dialysed (100 kDa cut-off) against TBS; conjugation efficiency = % of total SpyCatcher::HBsAg coupled to Pfs25::SpyTag

With Pfs25::SpyTag (Pfs25-SpyTag-Ctag) the conjugation efficiency (% of total SpyCatcher::HBsAg coupled to Pfs25::SpyTag) at molar ratio 0.1 was 10%, the conjugation efficiency (% of total SpyCatcher::HBsAg coupled to Pfs25::SpyTag) at molar ratio 0.5 was 50% and the conjugation efficiency (% of total SpyCatcher::HBsAg coupled to Pfs25::SpyTag) at molar ratio 1.5 was > 90%.
